US11491212

B1: FIXa-Y155F/K247N/N249S/R318Y/R403E/E410N (protein)
chain 1: not shown
chain 2: not shown
B2: FIXa-Y155F/K228N/K247N/N249S (protein)
chain 1: not shown
chain 2: not shown
B3: FIXa-A103N/N105S/K247N/N249S/R318Y/R338E/R403E/E410N (protein)
chain 1: not shown
chain 2: not shown
B4: FIXa-R318Y/T343R/E410N (protein)
chain 1: not shown
chain 2: not shown
B5: FIXa-R318Y/R338E/T412A (protein)
chain 1: not shown
chain 2: not shown
B6: FIXa-N260S/R318Y/R338E/R403E/E410N (protein)
chain 1: not shown
chain 2: not shown
B7: FIXa-Y155F/R318Y/T343R/E410N (protein)
chain 1: not shown
chain 2: not shown
B8: FIXa-R318Y/R338E/R403E/T412A (protein)
chain 1: not shown
chain 2: not shown
B9: FIXa-K228N/K247N/N249S/R318Y/R338E/T343R/R403E (protein)
chain 1: not shown
chain 2: not shown
B10: FIXa-D104N/K106S/Y155F/K247N/N249S/N260S (protein)
chain 1: not shown
chain 2: not shown
B11: FIXa-K228N/R318Y/R338E/T343R/R403E/E410N (protein)
chain 1: not shown
chain 2: not shown
B12: FIXa-K247N/N249S/R318Y/R403E/E410N (protein)
chain 1: not shown
chain 2: not shown
B13: FIXa-Y155F/R338E/R403E/E410N (protein)
chain 1: not shown
chain 2: not shown

What follows are proteins tested against Factor X (FX), P00742.
Sequence of Factor X (FX), P00742 (P00742 whole entry, looked up): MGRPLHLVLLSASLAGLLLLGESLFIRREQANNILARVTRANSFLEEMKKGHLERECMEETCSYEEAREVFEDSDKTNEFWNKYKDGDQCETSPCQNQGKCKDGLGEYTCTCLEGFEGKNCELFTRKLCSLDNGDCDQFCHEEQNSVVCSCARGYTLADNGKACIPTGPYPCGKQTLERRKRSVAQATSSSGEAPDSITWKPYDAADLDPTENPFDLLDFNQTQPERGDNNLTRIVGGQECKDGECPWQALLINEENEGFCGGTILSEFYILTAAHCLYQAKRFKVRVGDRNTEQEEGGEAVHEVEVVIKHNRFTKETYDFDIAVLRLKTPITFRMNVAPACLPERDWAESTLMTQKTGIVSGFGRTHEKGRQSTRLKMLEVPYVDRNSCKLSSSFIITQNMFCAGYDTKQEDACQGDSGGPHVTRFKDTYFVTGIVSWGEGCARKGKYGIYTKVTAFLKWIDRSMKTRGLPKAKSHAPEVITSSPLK

| Protein | KM [µM] | % of WT kcat/KM (against Catalyst Biosciences WT FIXa) [%] | kcat/KM for activation of FX by FIXa in the Xase complex (FVIIIa, PC/PS vesicles, Ca2+), fluorogenic Spectrafluor FXa read-out [M⁻¹ s⁻¹] | KM (nM), FX activation by FIXa in the Xase complex (FVIIIa, PC/PS vesicles, Ca2+), indirect fluorogenic assay with Spectrafluor FXa [nM] | % of WT kcat/KM (against Catalyst Biosciences WT FIXa), FX activation in the Xase complex [%] | kcat/KM for FX activation by FIXa in the Xase complex (FVIIIa, PC/PS vesicles, Ca2+), indirect fluorogenic Spectrafluor FXa assay [M⁻¹ s⁻¹] | KM (nM) for activation of FX by FIXa in the Xase complex (FVIIIa, PC/PS vesicles, Ca2+), fluorogenic Spectrafluor FXa assay [nM] |
| --- | --- | --- | --- | --- | --- | --- | --- |
| B1 | 0.125 | – | – | – | – | – | – |
| B2 | 0.0792 | 115 | 5.3e+07 | – | – | – | – |
| B3 | 0.028 | 324 | 1.5e+08 | – | – | – | – |
| B4 | – | – | – | 52.3 | – | – | – |
| B5 | 0.0235 | – | – | – | 661 | 3e+08 | – |
| B6 | 0.0724 | – | – | – | 117 | 5.3e+07 | – |
| B7 | – | – | – | 40.3 | – | – | – |
| B8 | 0.0675 | – | – | – | – | – | – |
| B9 | – | – | – | 44.4 | – | – | – |
| B10 | 0.0685 | – | – | – | 18 | 8.2e+06 | 68.5 |
| B11 | – | – | – | 40.3 | – | – | – |
| B12 | 0.111 | – | – | – | – | – | – |
| B13 | 0.0336 | – | – | – | – | – | – |
